Reference: US20240002497A1 (Merck Sharp & Dohme, published 2024)

Key:
huNav1.7α + β1-β2-β3 [1] = target: T1, huNav1.7α + β1-β2-β3 (human, UniProt Q15858 1-1988; A5A6L6 19-218; O60939 30-215; Q2KI11 23-215); assay: binding FACS, CHO FlpIn
T1 construct: also called huNav1.7-beta1-beta2-beta3; huNav1.7-β1-β2-β3
Method: (§1) Binding of the ISVDs to cell-expressed Nav1.7α was detected via murine anti-Flag (Sigma, catalog #F1804). Briefly, cells were resuspended in FACS buffer (PBS, 10% FBS, NaN₃) and transferred to a 96-well V-bottom plate at 1×10^5 cells/well. Purified FLAG3-tagged ISVD was diluted in FACS buffer and added to the cells for 30 minutes at 4° C. […] Prior to the read-out, the samples were resuspended in 1 μg/mL propidium iodide (Sigma, catalog #P4170) to exclude dead cells. Between each step, the cells were centrifuged for 5 minutes at 200 grams and washed with 100 μL/well FACS buffer.

huNav1.7α + β1-β2-β3 [2] = target: T2, huNav1.7α + β1-β2-β3 (human, UniProt Q15858 1-1988; A5A6L6 19-218; O60939 30-215; Q2KI11 23-215); assay: binding FACS, CHO FlpIn cells
T2 construct: Cell line (CHO FlpIn, HEK FlpIn, transient HEK293T) is named under assay; also called huNav1.7-beta1-beta2-beta3; human Nav1.7α with Navβ1, Navβ2 and Navβ3
Method: as §1

rhNav1.7α + β1-β2-β3 = target: T3, rhNav1.7α + β1-β2-β3 (rhesus monkey); assay: binding FACS, CHO FlpIn cells
T3 construct: also called rhNav1.7-beta1-beta2-beta3; rhesus Nav1.7α
Method: as §1

Row | Binder | Bmax (huNav1.7α + β1-β2-β3 [1]) [%] | EC50 (huNav1.7α + β1-β2-β3 [1]) [nM] | Bmax (huNav1.7α + β1-β2-β3 [2]) [%] | EC50 (huNav1.7α + β1-β2-β3 [2]) [nM] | Bmax (rhNav1.7α + β1-β2-β3) [%] | EC50 (rhNav1.7α + β1-β2-β3) [nM] | binding result (rhNav1.7α + β1-β2-β3)
1 | F010301870 (VHH, also called F0103464B09(L11V, S68T, T79Y, R81Q, S82aN, N82bS, K83R, G88A, V89L, L93N)) VHH: EVQLVESGGGVVQPGGSLRLSCATTSRAFIRDVFTGWYRRVPGKERELVARIYNGGNTNYADFAKGRFTISRDNAKKMVYLQMNSLRPEDTALYYCNFSGTINTGREYRSGDYWGQGTLVTVSS | 100 | 10 | – | – | – | – | –
2 | F010302365 (VHH, also called F0103464B09(L11V, T24A, T25S, V40A, E44Q, F62S, S68T, M77T, T79Y, R81Q, S82aN, N82bS, K83R, G88A, V89L, N99S)) VHH: EVQLVESGGGVVQPGGSLRLSCAASSRAFIRDVFTGWYRRAPGKQRELVARIYNGGNTNYADSAKGRFTISRDNAKKTVYLQMNSLRPEDTALYYCLFSGTISTGREYRSGDYWGQGTLVTVSS | 100 | 3.1 | – | – | – | – | –
3 | F010302366 (VHH, also called F0103464B09(L11V, T24A, T25S, R39Q, V40A, E44Q, F62S, S68T, M77T, T79Y, R81Q, S82aN, N82bS, K83R, G88A, V89L, N99S)) VHH: EVQLVESGGGVVQPGGSLRLSCAASSRAFIRDVFTGWYRQAPGKQRELVARIYNGGNTNYADSAKGRFTISRDNAKKTVYLQMNSLRPEDTALYYCLFSGTISTGREYRSGDYWGQGTLVTVSS | 100 | 3.7 | – | – | – | – | –
4 | F010302368 (VHH, also called F0103464B09(L11V, T24A, T25S, R39Q, V40A, E44Q, F62S, A63V, S68T, M77T, T79Y, R81Q, S82aN, N82bS, K83R, G88A, V89L,N99S)) VHH: EVQLVESGGGVVQPGGSLRLSCAASSRAFIRDVFTGWYRQAPGKQRELVARIYNGGNTNYADSVKGRFTISRDNAKKTVYLQMNSLRPEDTALYYCLFSGTISTGREYRSGDYWGQGTLVTVSS | 100 | 3.9 | – | – | – | – | –
5 | F010302333 (VHH) VHH: EVQLVESGGGVVQPGGSLRLSCAASSRQFIRDVFTGWYRRAPGKQRELVARIYNEGNTNYADSAKGRFTISRDNAKKTVYLQMNSLRPEDTALYYCLFSGTISTGREYRSGDYWGQGTLVTVSS [F010302333, listing 1 of 2 here] | 100 | 4.1 | – | – | – | – | –
6 | F010302341 (VHH) VHH: EVQLVESGGGVVQPGGSLRLSCAASSRQFIRDVFTGWYRQAPGKQRELVARIYNEGNTNYADSAKGRFTISRDNAKKTVYLQMNSLRPEDTALYYCLFSGTISTGREYRSGDYWGQGTLVTVSS | 100 | 5.3 | – | – | – | – | –
7 | F010302345 (VHH) VHH: EVQLVESGGGVVQPGGSLRLSCAASHRQFIRDVFTGWYRQAPGKQRELVARIYEGGNTQYADSAKGRFTISRDNAKKTVYLQMNSLRPEDTALYYCLFSGTISTGREYRSGDYWGQGTLVTVSS | – | – | 100 | 4.9 | 96 | 12 | –
8 | F010302357 (VHH) VHH: EVQLVESGGGVVQPGGSLRLSCAASSRQFIRDVFTGWYRQAPGKQRELVARIYNEGNTNYADSVKGRFTISRDNAKKTVYLQMNSLRPEDTALYYCLFSGTISTGREYRSGDYWGQGTLVTVSS | 100 | 5.3 | – | – | – | – | –
9 | F010302333 (VHH) VHH: EVQLVESGGGVVQPGGSLRLSCAASSRQFIRDVFTGWYRRAPGKQRELVARIYNEGNTNYADSAKGRFTISRDNAKKTVYLQMNSLRPEDTALYYCLFSGTISTGREYRSGDYWGQGTLVTVSS [F010302333, listing 2 of 2 here] | – | – | 100 | 4.1 | – | – | no binding
10 | F010301867 (VHH, A28Q vs F0103464B09 (Kabat)) VHH: EVQLVESGGGLVQPGGSLRLSCATTSRQFIRDVFTGWYRRVPGKERELVARIYNGGNTNYADFAKGRFSISRDNAKKMVTLRMSNLKPEDTGVYYCLFSGTINTGREYRSGDYWGQGTLVTVSS | – | – | – | 4.8 | 74 | 22 | –
11 | F010301888 (VHH, S26H vs F0103464B09 (Kabat)) VHH: EVQLVESGGGLVQPGGSLRLSCATTHRAFIRDVFTGWYRRVPGKERELVARIYNGGNTNYADFAKGRFSISRDNAKKMVTLRMSNLKPEDTGVYYCLFSGTINTGREYRSGDYWGQGTLVTVSS | – | – | – | 5.3 | 95 | 8.7 | –
12 | F010301883 (VHH, I51V vs F0103464B09 (Kabat)) VHH: EVQLVESGGGLVQPGGSLRLSCATTSRAFIRDVFTGWYRRVPGKERELVARVYNGGNTNYADFAKGRFSISRDNAKKMVTLRMSNLKPEDTGVYYCLFSGTINTGREYRSGDYWGQGTLVTVSS | – | – | – | 4.8 | 48 | 34 | –
13 | F010301889 (VHH, S95A vs F0103464B09 (Kabat)) VHH: EVQLVESGGGLVQPGGSLRLSCATTSRAFIRDVFTGWYRRVPGKERELVARIYNGGNTNYADFAKGRFSISRDNAKKMVTLRMSNLKPEDTGVYYCLFAGTINTGREYRSGDYWGQGTLVTVSS | – | – | – | 5.4 | 92 | 8.5 | –
14 | F010301884 (VHH, N53A vs F0103464B09 (Kabat)) VHH: EVQLVESGGGLVQPGGSLRLSCATTSRAFIRDVFTGWYRRVPGKERELVARIYAGGNTNYADFAKGRFSISRDNAKKMVTLRMSNLKPEDTGVYYCLFSGTINTGREYRSGDYWGQGTLVTVSS | – | – | – | 6 | 47 | 50 | –
15 | F010301881 (VHH, G54W vs F0103464B09 (Kabat)) VHH: EVQLVESGGGLVQPGGSLRLSCATTSRAFIRDVFTGWYRRVPGKERELVARIYNWGNTNYADFAKGRFSISRDNAKKMVTLRMSNLKPEDTGVYYCLFSGTINTGREYRSGDYWGQGTLVTVSS | – | – | – | 4.2 | 99 | 5.8 | –
16 | F010301890 (VHH, T35V vs F0103464B09 (Kabat)) VHH: EVQLVESGGGLVQPGGSLRLSCATTSRAFIRDVFVGWYRRVPGKERELVARIYNGGNTNYADFAKGRFSISRDNAKKMVTLRMSNLKPEDTGVYYCLFSGTINTGREYRSGDYWGQGTLVTVSS | – | – | – | 5 | 58 | 20 | –
17 | F010301887 (VHH, R31Q vs F0103464B09 (Kabat)) VHH: EVQLVESGGGLVQPGGSLRLSCATTSRAFIQDVFTGWYRRVPGKERELVARIYNGGNTNYADFAKGRFSISRDNAKKMVTLRMSNLKPEDTGVYYCLFSGTINTGREYRSGDYWGQGTLVTVSS | – | – | – | 7.5 | 51 | 59 | –
18 | F010301878 (VHH, G54E vs F0103464B09 (Kabat)) VHH: EVQLVESGGGLVQPGGSLRLSCATTSRAFIRDVFTGWYRRVPGKERELVARIYNEGNTNYADFAKGRFSISRDNAKKMVTLRMSNLKPEDTGVYYCLFSGTINTGREYRSGDYWGQGTLVTVSS | – | – | – | 7.1 | 83 | 27 | –
19 | F010301880 (VHH, G54S vs F0103464B09 (Kabat)) VHH: EVQLVESGGGLVQPGGSLRLSCATTSRAFIRDVFTGWYRRVPGKERELVARIYNSGNTNYADFAKGRFSISRDNAKKMVTLRMSNLKPEDTGVYYCLFSGTINTGREYRSGDYWGQGTLVTVSS | – | – | – | 4.9 | 73 | 24 | –
20 | F010301892 (VHH, V33L vs F0103464B09 (Kabat); also called F0103464B09(V33L)) VHH: EVQLVESGGGLVQPGGSLRLSCATTSRAFIRDLFTGWYRRVPGKERELVARIYNGGNTNYADFAKGRFSISRDNAKKMVTLRMSNLKPEDTGVYYCLFSGTINTGREYRSGDYWGQGTLVTVSS | – | – | – | 4 | 100 | 9.1 | –
21 | F010301891 (VHH, T57V vs F0103464B09 (Kabat)) VHH: EVQLVESGGGLVQPGGSLRLSCATTSRAFIRDVFTGWYRRVPGKERELVARIYNGGNVNYADFAKGRFSISRDNAKKMVTLRMSNLKPEDTGVYYCLFSGTINTGREYRSGDYWGQGTLVTVSS | – | – | – | 4.7 | 45 | 26 | –
22 | F010301882 (VHH, I30V vs F0103464B09 (Kabat)) VHH: EVQLVESGGGLVQPGGSLRLSCATTSRAFVRDVFTGWYRRVPGKERELVARIYNGGNTNYADFAKGRFSISRDNAKKMVTLRMSNLKPEDTGVYYCLFSGTINTGREYRSGDYWGQGTLVTVSS | – | – | – | 4.5 | 43 | 41 | –
23 | F010301885 (VHH, N53E vs F0103464B09 (Kabat)) VHH: EVQLVESGGGLVQPGGSLRLSCATTSRAFIRDVFTGWYRRVPGKERELVARIYEGGNTNYADFAKGRFSISRDNAKKMVTLRMSNLKPEDTGVYYCLFSGTINTGREYRSGDYWGQGTLVTVSS | – | – | – | 8 | 100 | 18 | –
24 | F010301886 (VHH, N58Q vs F0103464B09 (Kabat)) VHH: EVQLVESGGGLVQPGGSLRLSCATTSRAFIRDVFTGWYRRVPGKERELVARIYNGGNTQYADFAKGRFSISRDNAKKMVTLRMSNLKPEDTGVYYCLFSGTINTGREYRSGDYWGQGTLVTVSS | – | – | – | 4.3 | 81 | 15 | –
